Measured values as given in patent US20180291335A1, “MODIFIED POLYNUCLEOTIDES FOR ALTERING CELL PHENOTYPE” (ModernaTX, Inc., priority 2012, published 2018).

B1: 100% modification: G-CSF mRNA (SEQ ID NO: 408, Cap1) completely modified with 5mC and pseudoU (nucleic acid)
chain: GGGAAAUAAGAGAGAAAAGAAGAGUAAGAAGAAAUAUAAGAGCCACCAUGGCCGGUCCCGCGACCCAAAGCCCCAUGAAACUUAUGGCCCUGCAGUUGCUGCUUUGGCACUCGGCCCUCUGGACAGUCCAAGAAGCGACUCCUCUCGGACCUGCCUCAUCGUUGCCGCAGUCAUUCCUUUUGAAGUGUCUGGAGCAGGUGCGAAAGAUUCAGGGCGAUGGAGCCGCACUCCAAGAGAAGCUCUGCGCGACAUACAAACUUUGCCAUCCCGAGGAGCUCGUACUGCUCGGGCACAGCUUGGGGAUUCCCUGGGCUCCUCUCUCGUCCUGUCCGUCGCAGGCUUUGCAGUUGGCAGGGUGCCUUUCCCAGCUCCACUCCGGUUUGUUCUUGUAUCAGGGACUGCUGCAAGCCCUUGAGGGAAUCUCGCCAGAAUUGGGCCCGACGCUGGACACGUUGCAGCUCGACGUGGCGGAUUUCGCAACAACCAUCUGGCAGCAGAUGGAGGAACUGGGGAUGGCACCCGCGCUGCAGCCCACGCAGGGGGCAAUGCCGGCCUUUGCGUCCGCGUUUCAGCGCAGGGCGGGUGGAGUCCUCGUAGCGAGCCACCUUCAAUCAUUUUUGGAAGUCUCGUACCGGGUGCUGAGACAUCUUGCGCAGCCGUGAAGCGCUGCCUUCUGCGGGGCUUGCCUUCUGGCCAUGCCCUUCUUCUCUCCCUUGCACCUGUACCUCUUGGUCUUUGAAUAAAGCCUGAGUAGGAAG
modifications: Cap1; full 5mC and pseudoU modification; Description of Artificial Sequence: Synthetic Transcript Sequence
B2: 0% modification: unmodified G-CSF mRNA (SEQ ID NO: 408), not modified with 5mC and pseudoU (nucleic acid)
chain: GGGAAAUAAGAGAGAAAAGAAGAGUAAGAAGAAAUAUAAGAGCCACCAUGGCCGGUCCCGCGACCCAAAGCCCCAUGAAACUUAUGGCCCUGCAGUUGCUGCUUUGGCACUCGGCCCUCUGGACAGUCCAAGAAGCGACUCCUCUCGGACCUGCCUCAUCGUUGCCGCAGUCAUUCCUUUUGAAGUGUCUGGAGCAGGUGCGAAAGAUUCAGGGCGAUGGAGCCGCACUCCAAGAGAAGCUCUGCGCGACAUACAAACUUUGCCAUCCCGAGGAGCUCGUACUGCUCGGGCACAGCUUGGGGAUUCCCUGGGCUCCUCUCUCGUCCUGUCCGUCGCAGGCUUUGCAGUUGGCAGGGUGCCUUUCCCAGCUCCACUCCGGUUUGUUCUUGUAUCAGGGACUGCUGCAAGCCCUUGAGGGAAUCUCGCCAGAAUUGGGCCCGACGCUGGACACGUUGCAGCUCGACGUGGCGGAUUUCGCAACAACCAUCUGGCAGCAGAUGGAGGAACUGGGGAUGGCACCCGCGCUGCAGCCCACGCAGGGGGCAAUGCCGGCCUUUGCGUCCGCGUUUCAGCGCAGGGCGGGUGGAGUCCUCGUAGCGAGCCACCUUCAAUCAUUUUUGGAAGUCUCGUACCGGGUGCUGAGACAUCUUGCGCAGCCGUGAAGCGCUGCCUUCUGCGGGGCUUGCCUUCUGGCCAUGCCCUUCUUCUCUCCCUUGCACCUGUACCUCUUGGUCUUUGAAUAAAGCCUGAGUAGGAAG
modifications: Description of Artificial Sequence: Synthetic Transcript Sequence
B3: 50% modification: G-CSF mRNA (SEQ ID NO: 408) partially modified with 5mC and pseudoU, 50% modification (nucleic acid)
chain: GGGAAAUAAGAGAGAAAAGAAGAGUAAGAAGAAAUAUAAGAGCCACCAUGGCCGGUCCCGCGACCCAAAGCCCCAUGAAACUUAUGGCCCUGCAGUUGCUGCUUUGGCACUCGGCCCUCUGGACAGUCCAAGAAGCGACUCCUCUCGGACCUGCCUCAUCGUUGCCGCAGUCAUUCCUUUUGAAGUGUCUGGAGCAGGUGCGAAAGAUUCAGGGCGAUGGAGCCGCACUCCAAGAGAAGCUCUGCGCGACAUACAAACUUUGCCAUCCCGAGGAGCUCGUACUGCUCGGGCACAGCUUGGGGAUUCCCUGGGCUCCUCUCUCGUCCUGUCCGUCGCAGGCUUUGCAGUUGGCAGGGUGCCUUUCCCAGCUCCACUCCGGUUUGUUCUUGUAUCAGGGACUGCUGCAAGCCCUUGAGGGAAUCUCGCCAGAAUUGGGCCCGACGCUGGACACGUUGCAGCUCGACGUGGCGGAUUUCGCAACAACCAUCUGGCAGCAGAUGGAGGAACUGGGGAUGGCACCCGCGCUGCAGCCCACGCAGGGGGCAAUGCCGGCCUUUGCGUCCGCGUUUCAGCGCAGGGCGGGUGGAGUCCUCGUAGCGAGCCACCUUCAAUCAUUUUUGGAAGUCUCGUACCGGGUGCUGAGACAUCUUGCGCAGCCGUGAAGCGCUGCCUUCUGCGGGGCUUGCCUUCUGGCCAUGCCCUUCUUCUCUCCCUUGCACCUGUACCUCUUGGUCUUUGAAUAAAGCCUGAGUAGGAAG
modifications: 50% 5mC/pseudoU modified; Description of Artificial Sequence: Synthetic Transcript Sequence
B4: 75% modification: G-CSF mRNA (SEQ ID NO: 408) partially modified with 5mC and pseudoU, 75% modification (nucleic acid)
chain: GGGAAAUAAGAGAGAAAAGAAGAGUAAGAAGAAAUAUAAGAGCCACCAUGGCCGGUCCCGCGACCCAAAGCCCCAUGAAACUUAUGGCCCUGCAGUUGCUGCUUUGGCACUCGGCCCUCUGGACAGUCCAAGAAGCGACUCCUCUCGGACCUGCCUCAUCGUUGCCGCAGUCAUUCCUUUUGAAGUGUCUGGAGCAGGUGCGAAAGAUUCAGGGCGAUGGAGCCGCACUCCAAGAGAAGCUCUGCGCGACAUACAAACUUUGCCAUCCCGAGGAGCUCGUACUGCUCGGGCACAGCUUGGGGAUUCCCUGGGCUCCUCUCUCGUCCUGUCCGUCGCAGGCUUUGCAGUUGGCAGGGUGCCUUUCCCAGCUCCACUCCGGUUUGUUCUUGUAUCAGGGACUGCUGCAAGCCCUUGAGGGAAUCUCGCCAGAAUUGGGCCCGACGCUGGACACGUUGCAGCUCGACGUGGCGGAUUUCGCAACAACCAUCUGGCAGCAGAUGGAGGAACUGGGGAUGGCACCCGCGCUGCAGCCCACGCAGGGGGCAAUGCCGGCCUUUGCGUCCGCGUUUCAGCGCAGGGCGGGUGGAGUCCUCGUAGCGAGCCACCUUCAAUCAUUUUUGGAAGUCUCGUACCGGGUGCUGAGACAUCUUGCGCAGCCGUGAAGCGCUGCCUUCUGCGGGGCUUGCCUUCUGGCCAUGCCCUUCUUCUCUCCCUUGCACCUGUACCUCUUGGUCUUUGAAUAAAGCCUGAGUAGGAAG
modifications: 75% 5mC/pseudoU modified; Description of Artificial Sequence: Synthetic Transcript Sequence

Assays:
Format in all cases: cell-based, human
[1] = system: peripheral blood mononuclear cells (PBMC); assay: In vitro PBMC study, percent modification: G-CSF expression by ELISA; conditions: for G-CSF Expression: 22 hours after transfection; for Average G-CSF: PBMC, average of three donors
Method: 480 ng of G-CSF mRNA modified with 5-methylcytosine (5mC) and pseudouridine (pseudoU) or unmodified G-CSF mRNA was transfected with 0.4 uL of Lipofectamine 2000 into peripheral blood mononuclear cells (PBMC) from three normal blood donors (D1, D2, and D3). […] The supernatant was harvested and run by ELISA 22 hours after transfection to determine the protein expression. The expression of IFN-alpha and TNF-alpha may be a secondary effect from the transfection of the G-CSF mRNA.

TNF-alpha = assay: In vitro PBMC study, percent modification: TNF-alpha expression by ELISA; conditions: for Average TNF-a: average of three donors; for G-CSF/TNF-alpha (PC ratio): protein/cytokine ratio from averages
Method: (§1) The supernatant was harvested and run by ELISA 22 hours after transfection to determine the protein expression.

IFN-alpha = assay: In vitro PBMC study, percent modification: IFN-alpha expression by ELISA; conditions: for Average IFN-a: average of three donors; for G-CSF/IFN-alpha (PC ratio): protein/cytokine ratio from averages
Method: as §1

[2] = PBMC donor D1, 22 hours after transfection
[3] = PBMC donor D2, 22 hours after transfection
[4] = PBMC donor D3, 22 hours after transfection
[5] = PBMC, versus natural G-CSF mRNA

| Molecule | G-CSF Expression ([1]; PBMC donor D1, 480 ng mRNA) | G-CSF Expression ([1]; PBMC donor D2, 480 ng mRNA) | G-CSF Expression ([1]; PBMC donor D3, 480 ng mRNA) | TNF-alpha Expression (TNF-alpha; [2]) | TNF-alpha Expression (TNF-alpha; [3]) | TNF-alpha Expression (TNF-alpha; [4]) | Average TNF-a (TNF-alpha; PBMC) | G-CSF/TNF-alpha (PC ratio) (TNF-alpha; PBMC) | better ratio of protein/cytokine production than without any modification, TNF-alpha (TNF-alpha; [5]) | IFN-alpha Expression (IFN-alpha; [2]) | IFN-alpha Expression (IFN-alpha; [3]) | IFN-alpha Expression (IFN-alpha; [4]) | Average IFN-a (IFN-alpha; PBMC) | G-CSF/IFN-alpha (PC ratio) (IFN-alpha; PBMC) | better ratio of protein/cytokine production than without any modification, IFN-alpha (IFN-alpha; [5]) | Average G-CSF [1] |
| --- | --- | --- | --- | --- | --- | --- | --- | --- | --- | --- | --- | --- | --- | --- | --- | --- |
| Luciferase: control Luciferase mRNA (SEQ ID NO: 409, Cap1) fully modified 5meC and pseudoU [reference compound] | 90.2 pg/mL | 0.0 pg/mL | 22.1 pg/mL |  |  |  |  |  |  |  |  |  |  |  |  |  |
| B1 | 1968.9 pg/mL | 2595.6 pg/mL | 2835.7 pg/mL | 115.0 pg/mL | 15.0 pg/mL | 11.1 pg/mL | 47 pg/mL | 52 | 27 fold | 336.5 pg/mL | 78.0 pg/mL | 46.4 pg/mL | 153 pg/mL | 16 | 100 fold | 2466 pg/mL |
| B2 | 194.8 pg/mL | 182.0 pg/mL | 183.3 pg/mL | 154.6 pg/mL | 96.8 pg/mL | 45.9 pg/mL | 99 pg/mL | 1.9 |  | 1421.6 pg/mL | 810.5 pg/mL | 1260.5 pg/mL | 1164 pg/mL | 0.16 |  | 186 pg/mL |
| B3 | 188.9 pg/mL | 187.2 pg/mL | 191.9 pg/mL | 49.6 pg/mL | 24.1 pg/mL | 10.4 pg/mL | 28 pg/mL | 6.8 |  | 478.9 pg/mL | 261.1 pg/mL | 389.7 pg/mL | 376 pg/mL | 0.5 |  | 189 pg/mL |
| B4 | 566.7 pg/mL | 631.4 pg/mL | 659.5 pg/mL | 107.4 pg/mL | 21.7 pg/mL | 11.8 pg/mL | 47 pg/mL | 13 |  | 339.6 pg/mL | 107.6 pg/mL | 160.9 pg/mL | 202 pg/mL | 3.1 |  | 619 pg/mL |
